Experiment [1] addresses T1, human PD-1 (amino acids 1-185) on transfected Jurkat cells (human, UniProt Q15116 21-185).
T1 construct: also called hPD-1; Jurkat+hPD-1 cell line
The experiment in a line: flow cytometry, Jurkat+hPD-1 cells; competitor 10 µM anti-hPD-1 #1-mIgG2b-N297A. (In flow cytometry, cells or beads pass a laser one at a time.)
Procedure: (§1) Briefly, Jurkat cells stably expressing hPD-1 (as described in Protocol A above) were washed and re-suspended in FACS buffer containing 1:50 dilution of human FcR Blocking reagent. Cells were incubated at 4° C. for 10 minutes and washed. […] Cells were washed and incubated with test antibodies or antibody-attenuated hIL-2 fusion proteins serially diluted six-fold for an 8-point curve in 100 μL volume for one hour at 4° C. To detect bound test anti-hPD-1 antibodies or anti-hPD-1-attenuated hIL-2 fusion proteins, cells were washed again and incubated with 1:40 dilution of Allophycocyanin-conjugated anti-human IgG Fc monoclonal antibody for 45 minutes on ice. Cells were washed and re-suspended in FACS buffer containing 1:1000 dilution of Sytox Green (Thermo Fisher). […] Flow cytometry was carried out on the BD Canto II, BD Celesta, or BD Fortessa (BD Biosciences) flow cytometers and gMFI was calculated using FlowJo software version 10. EC₅₀ values were calculated from the gMFI of the Allophycocyanin signal across the titrated concentrations using GraphPad Prism 7 software.

The target in experiment [2] is T1, human PD-1 (amino acids 1-185) on …. The experiment in a line: flow cytometry on Jurkat cells expressing hPD-1; cells pre-incubated with 10 µM anti-hPD-1 #2-mIgG2b-N297A.
Procedure: as §1
Experiment [3] concerns the target T2, native human PD-1 on PMA/ionomycin-activated primary human T cells (human, UniProt Q15116 25-288).
T2 construct: whole, on cells; also called native hPD-1
Put plainly: flow cytometry, activated human CD3+CD4+ T cells.
Procedure: (§2) The binding of anti-hPD-1 antibodies and anti-hPD-1-attenuated hIL-2 fusion proteins on activated primary T cells expressing hPD-1 was examined by flow cytometry. […] Cells were then stained with 1:20 dilution of Allophycocyanin-conjugated anti-human IgG Fc to detect bound antibody. To delineate immune subsets, a cocktail of surface markers included anti-human CD3, anti-CD4, and anti-CD8 antibodies was used. […] Cells were analyzed on the BD Fortessa (BD Biosciences), FlowJo software version 10 was used to gate on T cell subsets then calculate gMFI of the allophycocyanin signal. EC₅₀ values were calculated from the gMFI across the titrated concentrations using GraphPad Prism 7 software. To test the binding of anti-hPD-1-hIL-2 fusion proteins, cryopreserved CD3+ T cells were activated with PMA/ionomycin and flow cytometry binding was performed identically as described above.

In experiment [4] the target is T1, human PD-1 (amino acids 1-185) on …. The experiment in a line: flow cytometry on Jurkat cells expressing hPD-1; cells pre-incubated with 10 µM anti-hPD-1 #1-mIgG2b-N297A.
Procedure: as §1
For experiment [5] the target is unchanged. The experiment in a line: flow cytometry on Jurkat cells expressing hPD-1; no competitor.
Procedure: as §1
The target of experiment [6] is human PD-1 on Jurkat Effector cells of the PD-1/PD-L1 blockade bioassay (Promega, Cat #J1255) (human, UniProt Q15116 25-288). Put plainly: cell-based or functional assay.
human PD-1 on Jurkat Effector cells of the PD-1/PD-L1 blockade bioassay (Promega, Cat #J1255), sequence (Q15116 25-288): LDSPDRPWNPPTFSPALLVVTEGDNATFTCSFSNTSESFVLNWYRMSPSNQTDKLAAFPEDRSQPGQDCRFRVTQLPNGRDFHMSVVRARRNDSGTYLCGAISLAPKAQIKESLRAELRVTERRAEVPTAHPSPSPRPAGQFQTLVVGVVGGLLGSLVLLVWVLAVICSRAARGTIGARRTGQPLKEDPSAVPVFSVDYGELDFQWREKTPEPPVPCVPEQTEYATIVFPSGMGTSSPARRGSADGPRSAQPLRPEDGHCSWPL
Experiment [7] addresses T2, native human PD-1 on …. The experiment in a line: flow cytometry, activated human CD3+CD8+ T cells.
Procedure: as §2
The target in experiment [8] is T3, human PD-1 on Jurkat cells (Jurkat+hPD-1) (human, UniProt Q15116 21-185).
T3 construct: extracellular domain and a portion of the transmembrane domain, stably expressed on Jurkat cells
T3 sequence (Q15116 21-185 limits assumed): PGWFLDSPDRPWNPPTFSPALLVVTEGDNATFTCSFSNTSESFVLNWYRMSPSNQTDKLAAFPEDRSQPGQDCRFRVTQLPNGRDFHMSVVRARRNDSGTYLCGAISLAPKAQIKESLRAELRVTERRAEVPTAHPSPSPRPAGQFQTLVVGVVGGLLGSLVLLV
Put plainly: flow cytometry on Jurkat cells expressing hPD-1.
Procedure: EC₅₀ values were calculated from the geometric mean fluorescent intensity (gMFI) across the titrated concentrations using GraphPad Prism 7 software.

The target in experiment [9] is T1, human PD-1 (amino acids 1-185) on …. Put plainly: flow cytometry on Jurkat cells expressing hPD-1; no competitor. The source holds these as a separate data set.
Procedure: as §1
Experiment [10] concerns the target T4, native cynomolgus PD-1 on PMA/ionomycin-activated cynomolgus T cells (cynomolgus, UniProt B0LAJ3 25-288). Put plainly: flow cytometry, activated cynomolgus CD3+CD4+ T cells.
Procedure: (§3) Human PD-1 antibody-attenuated hIL-2 fusion proteins were also tested for binding to activated cynomolgus T cells using flow cytometry. […] 24 hours later, cells were stained using the same procedure as binding to human PD-1 primary cells described above except cynomolgus cross-reactive markers were used. FlowJo software version 10 was used to gate on live, CD3⁺CD4⁺ or CD3⁺CD8⁺ T cells and then to calculate gMFI of the Allophycocyanin signal. EC₅₀ values were calculated from the gMFI across the titrated concentrations of anti-hPD-1 antibodies or hPD-1 antibody-attenuated hIL-2 fusion proteins using GraphPad Prism 7 software.
Experiment [11] addresses T1, human PD-1 (amino acids 1-185) on …. The experiment in a line: flow cytometry on Jurkat cells expressing hPD-1; cells pre-incubated with 10 µM anti-hPD-1 #2-mIgG2b-N297A. This is another data set of the same source.
Experiment [12] has the same target. Put plainly: flow cytometry on Jurkat cells expressing hPD-1; cells pre-incubated with 10 µM anti-hPD-1 #1-mIgG2b-N297A. This is another data set of the same source.
Procedure: as §1
The target of experiment [13] is T4, native cynomolgus PD-1 on …. Put plainly: flow cytometry, activated cynomolgus CD3+CD8+ T cells.
Procedure: as §3
For experiment [14], the target named is T5, recombinant His-tagged human PD-1 (Acro Biosystems) (human, UniProt Q15116 25-167).
T5 construct: also called recombinant human PD-1; human PD-1 (Acro Biosystems, Cat #PD-1-H5221-100 ug)
T5 sequence (Q15116 25-167 limits assumed): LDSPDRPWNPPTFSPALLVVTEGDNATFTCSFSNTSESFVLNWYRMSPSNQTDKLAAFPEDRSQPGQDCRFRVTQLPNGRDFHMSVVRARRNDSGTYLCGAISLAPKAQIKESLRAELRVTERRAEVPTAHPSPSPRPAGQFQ
Put plainly: SPR, steady state, separate experiment; separate experiment; steady state KD.

The target of experiment [15] is T1, human PD-1 (amino acids 1-185) on …. Put plainly: flow cytometry on Jurkat cells expressing hPD-1; cells pre-incubated with 10 µM anti-hPD-1 #2-mIgG2b-N297A. This is another data set of the same source.
Procedure: as §1
For experiment [16] the target is unchanged. The experiment in a line: flow cytometry on Jurkat cells expressing hPD-1; no competitor. This is another data set of the same source.
Procedure: as §1
Experiment [17] has the same target. Put plainly: flow cytometry on Jurkat cells expressing hPD-1; cells pre-incubated with 10 µM anti-hPD-1 #1-mIgG2b-N297A. This is another data set of the same source.
Procedure: as §1
Experiment [18] has the same target. Put plainly: flow cytometry, Jurkat+hPD-1 cells.

Residue numbers refer to the chain shown, from its start.

For orientation: EC50 (read off the curve) means the concentration at which the effect is half-maximal. A higher EC50 (read off the curve) goes with a less potent agent. The term EC50 denotes the concentration needed to bring the measured effect to its halfway point. A word on the Kd: it is the constant that tells how readily two partners part at equilibrium.

T2 sequence (Q15116 25-288): as the sequence (Q15116 25-288) above
T1 sequence (Q15116 21-185 limits assumed): as the sequence (Q15116 21-185 limits assumed) above
T4 sequence (B0LAJ3 entry or part of it limits assumed): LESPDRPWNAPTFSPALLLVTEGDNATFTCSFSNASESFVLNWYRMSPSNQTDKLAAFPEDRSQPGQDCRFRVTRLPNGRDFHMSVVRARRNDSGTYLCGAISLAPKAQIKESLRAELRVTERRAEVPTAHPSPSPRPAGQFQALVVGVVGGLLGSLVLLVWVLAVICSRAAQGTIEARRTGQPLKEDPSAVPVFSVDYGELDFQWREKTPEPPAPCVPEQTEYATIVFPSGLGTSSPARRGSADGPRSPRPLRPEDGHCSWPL

B1: A2-hIgG4 (antibody, V domains shown)
VH: DVQLVESGGGLVQPGGSLRLSCAASGFTFDISAMSWVRQAPGKGLEWVSTISGSAYSTYYADSVKGRFTISRDNSKSTLYLQMNSLRAEDTAVYYCAREIFSDYWGLGTLVTVSS
VL: QSVLTQPPSASGTPGQRVTISCSGSTSNIGRESVYWYQQLPGTAPKLLIYSNVQRPSGAPNRFSGSKSGTSASLAISGLQSEDEADYYCGTWDDSLNGWVFGGGTKLTVLG
Regarding B1, the “fold shift of the dose-titration curve” value in [1] was < 10 fold. The entries for the “EC50 (read off the curve)” value in experiment [2], in experiment [4] and in experiment [5] were ~20 nM, ~10 nM and ~6 nM, respectively. Also, the EC50 came to 30 nM in experiment [3] and 22 nM in [7]. Also, the “luminescence (RLU), PD-1/PD-L1 blockade bioassay” value (“luminescence (RLU)” below) in experiment [6] was ~3000 RLU.

B2: A2-hIgG4 (antibody, V domains shown)
VH: B1 VH
VL: B1 VL
In the case of B2, the EC50 in experiment [8] was determined as 5.97 nM.

B3: G12-hIgG4 (antibody, V domains shown)
VH: DSLVESGGGLVQPGGSLRLSCAASGFTFDISAMSWVRQAPGKGLEWVSTISGSAYSTYYADSVKGRFTISRDNSKSTLYLQMNSLRAEDTAVYYCAREIFSDYWGLGTLVTVSS
VL: B1 VL with S51L, V53S, A59V, N61D, E84V
B3 gave a half-maximal effective concentration (EC50) in experiment [8] of 5.36 nM.

B4: D12-hIgG4 (antibody, V domains shown)
VH: B1 VH
VL: B1 VL with S25N, A59V, N61D
With B4, the EC50 in experiment [8] is 9.67 nM.

B5: OMC.2.C6-hIgG4 (antibody, V domains shown)
VH: EVQLLESGGGLVQPGGSLRLSCTASGFTFSSYEMQWVRQAPGKGLEWVLGITSSSSHIFYADSVKGRFTVSRDNSKNTLYLQMNSLRAEDTAVYYCTKDLNSYYGLDVWGQGTTVTVSS
VL: QSVMTQPPSASGTPGQRVTISCSGSTSNLGNNYVSWYQHLPGTAPKLLIYGNDQRPSGVPDRFSGSKSGTSASLAISGLQSDDEADYYCSSWDASLNVWVFGGGTKLTVLG
Molecule B5 came in with a 50% effective concentration (EC50) in experiment [8] of 11.5 nM.

B6: OMC.1.B6-hIgG4 (antibody, V domains shown)
VH: EVQLLESGGGLVQPGGSLRLSCAASGFTFSSNYMSWVRQAPGKGLEWVSAISSSGGTIFYADSVKGRFTISRDNSKNTLYLQMNSLRAEDTAVYYCAKHKWNAVYYDGMDVWGQGTTVTVSS
VL: QSVLTQPPSASGTPGQRVTISCSGSNSNIGRNLVNWYQQLPGTAPKLLIYTIDQRPSGVPDRFSGSKSGTSASLVISGLQSEDEADYYCAAWDGSLNAWVFGGGTKLTVLG
B6 returned an EC50 in experiment [8] of 7.42 nM.

B7: OMC.1.D6-hIgG4 (antibody, V domains shown)
VH: B6 VH with S31D, N32Y, T69I, A103D, G108A
VL: B6 VL with I52V, V75A, Q80A, G94S, A98S
Consider B7, for which, in [8], the EC50 is 16 nM.

B8: 2H7-hIgG4 (antibody)
heavy: not shown
light: EIVLTQSPGTLSLSPGERATLSCRASQSIGKSFLAWYQQKPGQAPRLLIYDASTRAADIPARFSGSGSGTDFTLTISSLEPEDFAVYYCQQYYDWPPLSFGGGTKVEIKRTVAAPSVFIFPPSDEQLKSGTASVVCLLNNFYPREAKVQWKVDNALQSGNSQESVTEQDSKDSTYSLSSTLTLSKADYEKHKVYACEVTHQGLSSPVTKSFNRGEC
In the case of B8, the “fold shift of the dose-titration curve” value in [1] was < 10 fold. In addition, the half-maximal effective concentration (EC50 (read off the curve)) in experiment [9] was ~0.3 nM; in experiment [11], ~2 nM; in experiment [12], ~0.5 nM. Besides, the half-maximal effective concentration (EC50) in experiment [3] was 0.1 to 0.7 nM; in experiment [10], 0.09 nM; in experiment [13], 0.08 nM; in experiment [7] it was 0.1 to 0.8 nM. Besides, the “luminescence (RLU)” value in experiment [6] is ~3000 RLU.

B9: 2H7-hIgG4 (antibody)
heavy: not shown
light: B8 light
In experiment [8], B9 returned a half-maximal effective concentration (EC50) of 0.277 nM.

B10: H7-632-hIgG1-LAGA (antibody, V domains shown)
VH: EVQLLESGGGLVQPGGSLRLSCAASGFTFKSYAMHWVRQAPGKGLEWVSAIVYSGGSTYYADSVKGRFTISRDNSKNTLYLQMNSLRAEDTAVYYCAKYDRASYFYDAMDVWGQGTTVTVSS
VL: EIVLTQSPGTLSLSPGERATLSCRASQSISSSFLAWYQQKPGQAPRLLIYDASDRATGIPDRFSGSGSGTDFTLTISRLEPEDFAVYYCQQYYDWPPLSFGGGTKVEIKR
Consider B10, for which, in experiment [14], the Kd amounted to 1.23 nM.

B11: H7-632-hIgG1-LAGA (antibody, V domains shown)
VH: B10 VH
VL: B10 VL
Molecule B11 gave a 50% effective concentration (EC50) in experiment [8] of 0.115 nM.

B12: C51E6-5-hIgG4 (antibody, V domains shown)
VH: QVQLVQSGSELKKPGASVKVSCKASGYSLYGTSMHWVRQAPGQGLEWMGYISPFTGRATYAQGFTGRFVFSLDTSVSTAYLQISSLKAEDTAVYYCARDYDYRYYYAMDYWGQGTTVTVSS
VL: EIVLTQSPDFQSVTPKEKVTITCTASESVPPQFLHWYQQKPDQSPKLLIYASRERASGVPSRFSGSGSGTDFTLTINSLEAEDAATYYCHQFHRSPLTFGGGTKLEIKR
Consider B12, for which the “fold shift of the dose-titration curve” value in experiment [1] is < 10 fold. The EC50 in experiment [3] was 12 nM; in experiment [7], 16 nM; in experiment [18], 2 to 4 nM. The “EC50 (read off the curve)” value is ~8 nM in experiment [15], ~2 nM in experiment [16] and ~9 nM in [17]. Moreover, the “luminescence (RLU)” value in experiment [6] was ~3000 RLU.

B13: C51E6-5-hIgG4 (antibody, V domains shown)
VH: B12 VH
VL: B12 VL
Molecule B13 came in with a concentration for a half-maximal effect (EC50) in experiment [8] of 2.05 nM.
